Data from patent US11299518B2, “Fusion respiratory syncytial virus inhibitors and use thereof” (priority 2016, dated 2022).
“And” between values parts separate entries of the source, which are not always exact repeats. Equal entries are not always repeated. Numbered stars: 1 amine (or outer) side, 2 acyl side, 3 side chain; on linkers, the order of the positions; unused ones are H or OH. Bridge positions count the residues as written; N and C are the ends. Square brackets hold non-standard residues; d marks the D form. Peptide text beside a SMILES is read from it. Nle(6-ylidene) = O=C([C@H](CCCC=[*:3])N[*:1])[*:2]; tBuAla = CC(C)(C)C[C@H](N)C(=O)O; Cha = N[C@@H](CC1CCCCC1)C(=O)O; Chg = N[C@H](C(=O)O)C1CCCCC1; R5 = C=CCCC[C@@](C)(N)C(=O)O; S5 = C=CCCC[C@](C)(N)C(=O)O

Key:
circular dichroism = conditions: 10 mM phosphate; pH 7.5; 25 °C; 50 uM
[1] = CD spectroscopy, percentage of helicity; type: physicochemical; conditions: CD at 222 nm, 10 mM phosphate buffer pH 7.5, 50 μM peptide, 25° C.
Procedure: The secondary structure of the peptides was then characterized by circular dichroism (DC) as described below.
The circular dichroism spectra were acquired on a Jasco J-810 and on a Chirascan spectropolarimeter. The samples were prepared in 10 mM phosphate buffer, pH 7.5, at a peptide concentration of 50 μM. Data were recorded at 25° C. by stepscan from 180 nm to 260 nm in a 0.1 cm pathlength quartz cell using 0.2 nm wavelength increments, 1 nm bandwidth and a response time of 0.5 sec. Each spectrum was an average of three measurements and was subtracted from buffer baseline. The data were converted to per residue molar ellipticity units [θ] (deg·cm2·dmol−1·residue−1) and smoothed using the Igor software. The percentage of helicity was calculated as it follows:
[formula] whereby CD222=molar ellipticity at 222 nm in [mdeg], N=number of amino acids in the peptide and C=peptide molar concentration [mol/l].

Row | Molecule | helicity (circular dichroism) | % helicity [1]
1 | CC[C@H](C)[C@@H]1NC(=O)[C@H](Cc2ccccc2)NC(=O)[C@@](C)(NC(=O)[C@H](CC(C)C)NC(=O)[C@H](CO)NC(=O)[C@]2(C)CCCC=CCCC[C@@](C)(NC(=O)[C@H](CCC(=O)O)NC(C)=O)C(=O)N[C@@H]([C@@H](C)CC)C(=O)N[C@@H](CCCCN)C(=O)N2)CCCC=CCCC[C@@](C)(C(=O)N[C@@H](CO)C(=O)N[C@@H](CC(=O)O)C(=O)N[C@@H](CCC(=O)O)C(=O)N[C@@H](CC(C)(C)C)C(=O)N[C@@H](CC(C)C)C(=O)N[C@@H](Cc2c[nH]cn2)C(=O)N[C@@H](CC(N)=O)C(=O)N[C@H](C(N)=O)C(C)C)NC(=O)[C@H](CCCNC(=N)N)NC1=O [Peptide 4ca-var5, E Xaa2 IK Xaa5 SL Xaa8 FIR Xaa12 SDE Xaa16LHNV] (Ac-E[R5]IK[S5]SL[S5]FIR[S5]SDE[tBuAla]LHNV-NH2; staple 2-5, 8-12) | 82.3% | 82.3%
2 | EKI Xaa4 A SL Xaa8 FI Xaa11 KSD Xaa15 LLHNV (Ac-EKI[S5]ASL[S5]FI[S5]KSD[S5]LLHNV-NH2; staple 11-15, 4-8 (inferred)) [Peptide V4bb501] |  | 12%
3 | CC[C@H](C)[C@@H]1NC(=O)[C@H](Cc2ccccc2)NC(=O)[C@@](C)(NC(=O)[C@@H](NC(=O)[C@H](CO)NC(=O)[C@]2(C)CCCC=CCCC[C@@](C)(NC(=O)[C@H](CCC(=O)O)NC(C)=O)C(=O)N[C@@H]([C@@H](C)CC)C(=O)N[C@@H](CC(N)=O)C(=O)N2)C2CCCCC2)CCCC=CCCC[C@@](C)(C(=O)N[C@@H](CO)C(=O)N[C@@H](CC(=O)O)C(=O)N[C@@H](CCC(=O)O)C(=O)N[C@@H](CC(C)C)C(=O)N[C@@H](CC(C)C)C(=O)N[C@@H](Cc2c[nH]cn2)C(=O)N[C@@H](CC(N)=O)C(=O)N[C@H](C(N)=O)C(C)C)NC(=O)[C@H](CCCNC(=N)N)NC1=O [Peptide 4ca-var3] (Ac-E[R5]IN[S5]S[Chg][S5]FIR[S5]SDELLHNV-NH2; staple 2-5, 8-12) | 91.4% | 91.4%
4 | Ac-FDASISQVNEKINQSLAFIRKSDELLHNVNAGKST-NH2 (N-terminus and C-terminus assumed) [Peptide T118, reference compound] |  | 23.4%
5 | EKA Xaa4 QSL Xaa8 FI Xaa11 KSD Xaa15 LLHNV (Ac-EKA[S5]QSL[S5]FI[S5]KSD[S5]LLHNV-NH2; staple 11-15, 4-8 (inferred)) [Peptide V4bb499] |  | 24%
6 | CC[C@H](C)[C@@H]1NC(=O)[C@H](Cc2ccccc2)NC(=O)[C@@](C)(NC(=O)[C@H](CC(C)C)NC(=O)[C@H](CO)NC(=O)[C@]2(C)CCCC=CCCC[C@@](C)(NC(=O)[C@H](CCC(=O)O)NC(C)=O)C(=O)N[C@@H]([C@@H](C)CC)C(=O)N[C@@H](CCCNC(=N)N)C(=O)N2)CCCC=CCCC[C@@](C)(C(=O)N[C@@H](CO)C(=O)N[C@@H](CC(=O)O)C(=O)N[C@@H](CCC(=O)O)C(=O)N[C@@H](CC(C)(C)C)C(=O)N[C@@H](CC(C)C)C(=O)N[C@@H](Cc2c[nH]cn2)C(=O)N[C@@H](CC(N)=O)C(=O)N[C@H](C(N)=O)C(C)C)NC(=O)[C@H](CCCNC(=N)N)NC1=O [Peptide 4ca-var6, E Xaa2 IR Xaa5 SL Xaa8 FIR Xaa12 SDE Xaa16LHNV] (Ac-E[R5]IR[S5]SL[S5]FIR[S5]SDE[tBuAla]LHNV-NH2; staple 2-5, 8-12) | 85.6% | 85.6%
7 | CC[C@H](C)[C@@H]1NC(=O)[C@H](Cc2ccccc2)NC(=O)[C@@H](NC(=O)[C@H](CC(C)C)NC(=O)[C@H](CO)NC(=O)[C@@H]2CCCC=CCCC[C@@](C)(NC(=O)[C@H](CCC(=O)O)NC(C)=O)C(=O)N[C@@H]([C@@H](C)CC)C(=O)N[C@@H](CC(N)=O)C(=O)N2)CCCC=CCCC[C@@H](C(=O)N[C@@H](CO)C(=O)N[C@@H](CC(=O)O)C(=O)N[C@@H](CCC(=O)O)C(=O)N[C@@H](CC(C)C)C(=O)N[C@@H](CC(C)C)C(=O)N[C@@H](Cc2c[nH]cn2)C(=O)N[C@@H](CC(N)=O)C(=O)N[C@H](C(N)=O)C(C)C)NC(=O)[C@H](CCCNC(=N)N)NC1=O [Peptide 4ca2] (Ac-E[R5]IN[Nle(6-ylidene)]SL[Nle(6-ylidene)]FIR[Nle(6-ylidene)]SDELLHNV-NH2; staple 2-5, 8-12) | 58.1% | 58.1%
8 | EFPS X486 EFD X490 SI X493 QVN X497 KIN (EFPSXEFDXSIXQVNXKIN; not fully specified; (S)-2-(4-pentenyl)alanine residues, likely stapled; comparative peptide 1eg; (1)..(1) N-term acetylated; (5)..(5) (S)-2-(4-pentenyl)alanine; (9)..(9) (S)-2-(4-pentenyl)alanine; (12)..(12) (S)-2-(4-pentenyl)alanine; (16)..(16) (S)-2-(4-pentenyl)alanine; (19)..(19) C-term amidated) [comparative peptide; X486, X490, X493 and X497 are (S)-2-(4-pentenyl)alanine, reference compound] |  | 35.3%
9 | CC[C@H](C)[C@@H]1NC(=O)[C@H](Cc2ccccc2)NC(=O)[C@@](C)(NC(=O)[C@H](CC(C)C)NC(=O)[C@H](CO)NC(=O)[C@]2(C)CCCC=CCCC[C@@](C)(NC(=O)[C@H](CCC(=O)O)NC(C)=O)C(=O)N[C@@H]([C@@H](C)CC)C(=O)N[C@@H](CC(N)=O)C(=O)N2)CCCC=CCCC[C@@](C)(C(=O)N[C@@H](CO)C(=O)N[C@@H](CC(=O)O)C(=O)N[C@@H](CCC(=O)O)C(=O)N[C@@H](CC(C)(C)C)C(=O)N[C@@H](CC(C)C)C(=O)N[C@@H](Cc2c[nH]cn2)C(N)=O)NC(=O)[C@H](CCCNC(=N)N)NC1=O [Peptide 4ca-var8, E Xaa2 IN Xaa5 SL Xaa8 FIR Xaa12 SDE Xaa16LH] (Ac-E[R5]IN[S5]SL[S5]FIR[S5]SDE[tBuAla]LH-NH2; staple 2-5, 8-12) | 75.8% | 75.8%
10 | CC[C@H](C)[C@@H]1NC(=O)[C@H](Cc2ccccc2)NC(=O)[C@@](C)(NC(=O)[C@H](CC(C)C)NC(=O)[C@H](CO)NC(=O)[C@]2(C)CCCC=CCCC[C@@](C)(NC(=O)[C@H](CCC(=O)O)NC(C)=O)C(=O)N[C@@H]([C@@H](C)CC)C(=O)N[C@@H](CC(N)=O)C(=O)N2)CCCC=CCCC[C@@](C)(C(=O)N[C@@H](CO)C(=O)N[C@@H](CC(=O)O)C(=O)N[C@@H](CCC(=O)O)C(=O)N[C@@H](CC2CCCCC2)C(=O)N[C@@H](CC(C)C)C(=O)N[C@@H](Cc2c[nH]cn2)C(=O)N[C@@H](CC(N)=O)C(=O)N[C@H](C(N)=O)C(C)C)NC(=O)[C@H](CCCNC(=N)N)NC1=O [Peptide 4ca-var7, E Xaa2 IN Xaa5 SL Xaa8 FIR Xaa12 SDE Xaa16LHNV] (Ac-E[R5]IN[S5]SL[S5]FIR[S5]SDE[Cha]LHNV-NH2; staple 2-5, 8-12) | 91.4% | 91.4%
11 | EKI Xaa4 Q A L Xaa8 FI Xaa11 KSD Xaa15 LLHNV (Ac-EKI[S5]QAL[S5]FI[S5]KSD[S5]LLHNV-NH2; staple 11-15, 4-8 (inferred)) [Peptide V4bb502] |  | 15%
12 | CC[C@H](C)[C@H](NC(=O)[C@H](CCCCN)NC(=O)[C@H](CCC(=O)O)NC(C)=O)C(=O)N[C@@H](CC(N)=O)C(=O)N[C@@H](CCC(N)=O)C(=O)N[C@@H](CO)C(=O)N[C@@H](CC(C)C)C(=O)N[C@H]1CCCC=CCCC[C@@H](C(=O)N[C@@H](CO)C(=O)N[C@@H](CC(=O)O)C(=O)N[C@H]2CCCC=CCCC[C@@H](C(=O)N[C@H](C(N)=O)C(C)C)NC(=O)[C@H](Cc3c[nH]cn3)NC(=O)[C@H](CC(C)C)NC(=O)[C@H](CC(C)C)NC2=O)NC(=O)[C@H](CCCNC(=N)N)NC(=O)[C@H]([C@@H](C)CC)NC(=O)[C@H](Cc2ccccc2)NC1=O (Ac-EKINQSL[Nle(6-ylidene)]FIR[Nle(6-ylidene)]SD[Nle(6-ylidene)]LLH[Nle(6-ylidene)]V-NH2; staple 8-12, 15-19) | 46% | 
13 | CC[C@H](C)[C@@H]1NC(=O)[C@H](Cc2ccccc2)NC(=O)[C@@](C)(NC(=O)[C@H](CC(C)C)NC(=O)[C@H](CO)NC(=O)[C@]2(C)CCCC=CCCC[C@@](C)(NC(C)=O)C(=O)N[C@@H]([C@@H](C)CC)C(=O)N[C@@H](CC(N)=O)C(=O)N2)CCCC=CCCC[C@@](C)(C(=O)N[C@@H](CO)C(=O)N[C@@H](CC(=O)O)C(=O)N[C@@H](CCC(=O)O)C(=O)N[C@@H](CC(C)C)C(=O)N[C@@H](CC(C)C)C(N)=O)NC(=O)[C@H](CCCNC(=N)N)NC1=O [Peptide 4ca16, X498 IN X501 SL X504 FIR X508 SDELL] (Ac-[R5]IN[S5]SL[S5]FIR[S5]SDELL-NH2; staple 1-4, 7-11) |  | >100%
14 | EKINQSL Xaa8 FIR Xaa12 SD Xaa15 LLH Xaa19 V (Ac-EKINQSL[(S)‑2‑(4-pentenyl)glycine]FIR[(S)‑2‑(4-pentenyl)glycine]SD[(S)‑2‑(4-pentenyl)glycine]LLH[(S)‑2‑(4-pentenyl)glycine]V-NH2; staple 8-12, 15-19 (inferred); not fully specified; printed as EKINQSL Xaa8 FIR Xaa12 SD Xaa15 LLH Xaa19 V) [Peptide 4a2, Xaa8, Xaa12, Xaa15 and Xaa19 are (S)-2-(4-pentenyl)glycine; Formula (C7)] |  | 46%
15 | EQSLAFIRKSDELLHNV (comparative peptide 3) [non-stapled native comparative peptide, reference compound] |  | 5.9% and 6.6%
